According to US20120058906A1 (published 2012):

Assays:
Assay in all cases: MSD ECL multi-spot, Fab 2.38 uM, blank 526;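 note: blank spot per well as comparator with Hit at signal to blank ratio of 4 or more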
[1] = biological target: T1, rHuman ErbB2/Fc Chimera, CF (R&D Systems Cat#1129-ER) (human, UniProt P04626 23-652)
T1 construct: Bought Fc chimera; also called HER2/neu; Fc part of the bought chimera not given

[2] = biological target: T2, rHuman CD44/Fc Chimera, CF (R&D Systems Cat#3660-CD) (human, UniProt P16070 21-220)
T2 construct: Bought Fc chimera; Fc part of the bought chimera not given

[3] = biological target: T3, rHuman Erythropoietin R/Fc Chimera, CF (R&D Systems Cat#963-ER) (human, UniProt P19235 25-250)
T3 construct: Bought Fc chimera; also called EPO R/Fc; EPOR; Fc part of the bought chimera not given
T3 sequence: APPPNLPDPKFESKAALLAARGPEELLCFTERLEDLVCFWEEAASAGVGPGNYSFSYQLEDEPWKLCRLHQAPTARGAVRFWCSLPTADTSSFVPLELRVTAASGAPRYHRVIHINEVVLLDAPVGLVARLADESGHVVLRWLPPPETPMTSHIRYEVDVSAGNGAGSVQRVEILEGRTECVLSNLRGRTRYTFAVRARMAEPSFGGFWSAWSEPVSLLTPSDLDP

[4] = biological target: T4, Recombinant Human DLL4 (R&D Systems Cat#1506-D4/CF) (human, UniProt Q9NR61 27-524)
T4 construct: Bought recombinant protein; also called rHuman DLL4; delta-like protein 4

[5] = biological target: T5, rHuman EGF R/Fc Chimera, CF (R&D Systems Cat#344-ER) (human, UniProt P00533 25-645)
T5 construct: Bought Fc chimera; Fc part of the bought chimera not given

[6] = biological target: T6, rHuman Notch-1/Fc Chimera, CF (R&D Systems Cat#3647-TK) (human, UniProt P46531 19-526)
T6 construct: Bought Fc chimera; Fc part of the bought chimera not given

[7] = biological target: T7, rHuman IGF-1 sR (insulin-like growth factor-1 soluble receptor), CF (R&D Systems Cat#391-GR) (human, UniProt P08069 31-932)
T7 construct: Bought soluble receptor; also called IGF-R1

B1: Fab VH5-51_IGHD5-18*01>3_IGHJ4*01 & V3-4_IGLJ1*01 (Fab, V domains shown)
VH: EVQLVQSGAEVKKPGESLKISCKGSGYSFTSYWIGWVRQMPGKGLEWMGIIYPGDSDTRYSPSFQGQVTISADKSISTAYLQWSSLKASDTAMYYCARRGYSYGYDYFDYWGQGTLVTVSS
VL: QTVVTQEPSFSVSPGGTVTLTCGLSSGSVSTSYYPSWYQQTPGQAPRTLIYSTNTRSSGVPDRFSGSILGNKAALTITGAQADDESDYYCVLYMGSGISYVFGTGTKVTVL
notes: Expressed in E. coli as Fab: heavy chain with CH1 plus Flag and His tags from Plasmid A, lambda light chain constant region from Plasmid E; also called Fab No. 2
- ECL signal [1]: 594
- ECL signal [2]: 666
- ECL signal [3]: 834
- ECL signal [4]: 12200
- ECL signal [5]: 681
- ECL signal [6]: 636
- ECL signal [7]: 691
